Earlier results in article PMC5007751.

Target: RNA helicase A distal portion of helicase domain (Homo sapiens) (UniProt Q08211)
Sequence of UniProt Q08211 (Q08211 630-1020): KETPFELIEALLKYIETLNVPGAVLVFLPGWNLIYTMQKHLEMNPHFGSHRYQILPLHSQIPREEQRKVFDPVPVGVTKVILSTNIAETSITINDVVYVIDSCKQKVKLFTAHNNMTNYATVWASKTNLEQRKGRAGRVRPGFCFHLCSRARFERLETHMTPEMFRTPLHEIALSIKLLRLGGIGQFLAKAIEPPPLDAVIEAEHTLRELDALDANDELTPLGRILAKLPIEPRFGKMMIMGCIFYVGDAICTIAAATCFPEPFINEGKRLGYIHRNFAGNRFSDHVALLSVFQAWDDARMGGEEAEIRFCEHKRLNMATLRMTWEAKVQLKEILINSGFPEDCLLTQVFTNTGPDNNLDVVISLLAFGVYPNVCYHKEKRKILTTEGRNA

EWS/FLI (from UniProt Q01844)
Kd: 9.48 µM
